The values that follow come from patent publication US20110059887A1.

This assay deals with Human IGF Receptor (Type I IGF receptor) (human) (UniProt P08069). Kind of assay: microtiter plate antibody capture competition assay with IGF Type I receptor.
Sequence of Human IGF Receptor (Type I IGF receptor) (human) (P08069 31-1367 limits assumed): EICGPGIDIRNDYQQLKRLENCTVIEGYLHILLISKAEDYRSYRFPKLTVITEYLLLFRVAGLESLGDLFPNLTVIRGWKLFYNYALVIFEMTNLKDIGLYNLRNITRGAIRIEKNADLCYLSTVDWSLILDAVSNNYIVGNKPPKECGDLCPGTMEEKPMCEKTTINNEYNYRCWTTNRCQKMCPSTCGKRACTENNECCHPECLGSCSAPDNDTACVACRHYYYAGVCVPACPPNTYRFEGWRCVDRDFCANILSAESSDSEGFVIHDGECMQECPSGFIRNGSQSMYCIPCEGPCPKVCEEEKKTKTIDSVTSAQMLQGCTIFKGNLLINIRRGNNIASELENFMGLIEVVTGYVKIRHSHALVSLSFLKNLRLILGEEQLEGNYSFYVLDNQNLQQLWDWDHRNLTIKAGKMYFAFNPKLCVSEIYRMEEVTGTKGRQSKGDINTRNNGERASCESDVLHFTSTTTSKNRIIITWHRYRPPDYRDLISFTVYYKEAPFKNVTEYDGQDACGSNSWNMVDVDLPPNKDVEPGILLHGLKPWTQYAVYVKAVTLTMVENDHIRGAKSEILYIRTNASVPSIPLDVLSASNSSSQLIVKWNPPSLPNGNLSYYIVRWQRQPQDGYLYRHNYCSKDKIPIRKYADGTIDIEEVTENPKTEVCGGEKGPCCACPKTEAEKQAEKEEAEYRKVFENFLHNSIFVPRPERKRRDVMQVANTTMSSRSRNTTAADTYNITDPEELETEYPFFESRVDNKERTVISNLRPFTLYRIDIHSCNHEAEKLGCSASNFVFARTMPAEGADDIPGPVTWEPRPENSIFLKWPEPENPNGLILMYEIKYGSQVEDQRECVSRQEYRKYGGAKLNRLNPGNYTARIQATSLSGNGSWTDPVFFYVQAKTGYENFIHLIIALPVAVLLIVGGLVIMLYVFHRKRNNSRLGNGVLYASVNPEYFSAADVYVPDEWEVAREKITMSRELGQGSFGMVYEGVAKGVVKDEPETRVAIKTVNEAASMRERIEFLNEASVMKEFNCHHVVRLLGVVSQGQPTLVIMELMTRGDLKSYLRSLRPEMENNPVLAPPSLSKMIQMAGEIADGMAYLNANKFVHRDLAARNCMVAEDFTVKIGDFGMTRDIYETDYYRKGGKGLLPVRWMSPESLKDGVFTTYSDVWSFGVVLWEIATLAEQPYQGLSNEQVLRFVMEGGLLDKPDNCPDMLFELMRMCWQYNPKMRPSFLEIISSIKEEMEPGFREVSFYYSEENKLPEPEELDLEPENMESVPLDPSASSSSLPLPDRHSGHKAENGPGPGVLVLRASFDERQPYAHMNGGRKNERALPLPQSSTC

For “KP-insulin (SEQ. ID. NOS. 2 & 4) (ligand; other documents disagree on this pair)”, the Affinity for IGFR (compared to that of human insulin) amounted to 90.
